# In patent US20250064890A1, “PROTEIN COMPOSITIONS FOR THE TREATMENT OF INFLAMMATORY DISEASES” (Unichem Laboratories Limited, priority 2021, published 2025):
# B1: SEQ ID NO 2: recombinant lectin, variant of the S. rolfsii lectin amino acid sequence (reported as Rec-2 in WO 2010/095143) (protein)
# chain: TYKITVRVYQTNPDAFFHPVEKTVWKYANGGTWTITDDQHVLTMGGSGTSGTLRFHADNGESFTATFGVHNYKRWCDIVTNLAADETGMVINQQYYSQKNREEARERQLSNYQVKNAKGRNFQIVYTEAEGNDLHANLIIG
# Tests used:
# [1] = system: oral (buccal) mucosa cells (TR146); assay: Annexin positive cell population against radiation damage; assay type: cell-based, human; conditions: for % Apoptotic cells: Annexin positive
# Experimental: Oral buccal mucosal cells (TR146) were incubated overnight in 5% CO2 incubator at 37° C. for 24 h. […] After 24 h of treatment, cells were exposed to damage (5-FU 5 mM) for 1.25 h for chemotherapy induced inflammation and exposed to gamma radiation (3.5 kGy) using Cobalt 60 for radiation induced inflammation. After the exposure, the anti-apoptotic effect of SEQ ID NO 2 was determined by restoration of mitochondrial membrane depolarization by JC-1 staining and reduction in apoptotic cell populations (Annexin positive and subG0/G1 cells in cell cycle analysis).
# To determine the reduction in apoptotic cell populations using annexin-v staining cells were gently harvested into pre-labeled sterile centrifuge tubes and centrifuged at 300×g for 5-7 min. Supernatant were discarded and the pellet was resuspended in 200 μl of fresh culture medium. 100 μl of cell suspension was transferred into pre-labeled sterile centrifuge tubes. 100 μl of Annexin-V reagent was added to each tube and incubated for 30 min at RT in dark. Cells stained for Annexin-V were then transferred into 96-well plates and acquired on flow cytometer (Guava technologies). Percentage of Annexin-V positive cells was calculated as follows:
# ={[% Annexin positive cells in 5-FU or radiation alone]−[% Annexin positive cells in (TI+5-FU) or (TI+radiation)]/% Annexin positive cells in 5-FU or radiation alone}*100
# CCL-2 = assay: Multiplex analysis, radiotherapy, TR146; assay type: cell-based, human
# Experimental: (§1) Oral buccal mucosal cells (TR146) cells were incubated overnight at 37° C. in 5% CO2 incubator. […] The cells were then stimulated with 5-FU (10 mM) for another 24h for chemotherapy and with gamma radiation (3.5 kGy) using Cobalt 60 for radiotherapy. After 24 h, cell culture supernatants were collected from each well and stored at −20° C. till multiplex analysis. For NF-kB estimations, cell lysates were prepared. Levels of biomarkers were estimated using Magpix® multiplex machine. The cells treated with Amifostine (along with 5-FU or radiation) were considered as positive control (PC). Untreated cells (5-FU or radiation alone treated) were used as negative control (NC).
# (§2) The percent modulation in each sample was determined as follows:
# (§3) [{Concentration of biomarkers (pg/ml) in Control cells (5-FU or radiation alone treated)−Concentration of biomarkers (pg/ml) in SEQ ID NO: 2+5-FU or radiation treated cells)}/Concentration of biomarkers (pg/ml) in Control cells (5-FU or radiation alone treated)]*100
# IL-1β = assay: Multiplex analysis, radiotherapy, TR146; assay type: cell-based, human
# Experimental: as §1, §2, §3
# IL-6 = assay: Multiplex analysis, radiotherapy, TR146; assay type: cell-based, human
# Experimental: as §1, §2, §3
# MMP-3 = assay: Multiplex analysis, radiotherapy, TR146; assay type: cell-based, human
# Experimental: as §1, §2, §3
# MMP-8 = assay: Multiplex analysis, radiotherapy, TR146; assay type: cell-based, human
# Experimental: as §1, §2, §3
# RAGE = assay: Multiplex analysis, radiotherapy, TR146; assay type: cell-based, human
# Experimental: as §1, §2, §3
# TNF-α = assay: Multiplex analysis, radiotherapy, TR146; assay type: cell-based, human
# Experimental: as §1, §2, §3
# VEGF = assay: Multiplex analysis, radiotherapy, TR146; assay type: cell-based, human
# Experimental: as §1, §2, §3
# Interleukin-1β = Interleukin-1β in jugular mucosa (ELISA), 5-FU induced OM in hamsters; assay type: in vivo, golden Syrian hamsters; conditions: for IL-1β levels, % Decrease vs G2: G2 = OM + Vehicle
# Experimental: To induce OM, animals were administered (except normal control) 5-Fluorouracil (5-FU) by intraperitoneal route at doses of 60 mg/kg & 40 mg/kg respectively on first two days. On Day 4, under anesthesia, with aim of enhancing OM, mechanical irritation of the oral mucosa were done using wire brush. Treatment was initiated from Day 4 to Day 12. For group 3 animals 100 μl of vehicle comprising of standard drug Dexamethasone at 0.1 mg was instilled in buccal cheek pouch. For group 4, 5 and 6 animals 100 μl of vehicle comprising of SEQ ID NO. 2 at 0.25 mg, 0.5 mg & 1 mg, respectively was instilled in buccal cheek pouch. At the end of treatment period, cheek pouch of the hamsters was exposed, Mucositis scoring was carried out and images were captured. The animals were then humanely sacrificed, cheek pouch/jugular mucosa were isolated and used for biomarker estimation and histopathological investigation by using ELISA method and Hematoxylin and Eosin (H&E) staining, respectively.
# Further, for biomarker estimation jugular mucosa was dissected out, tissue weighed and stored in ice cold 1×PBS. 100 mg of tissue was taken and in 1 ml of 1×PBS buffer. Supernatant of homogenate was used for analysis of TNF-α and Interleukin-1β using ELISA method as per manufacturers instruction. The levels of TNF-α and Interleukin-1β are given in Table 13, FIG. 2 and Table 14, FIG. 3, respectively.
# [2] = 0.01 μg/ml + Radiation (3.5 kGy)
# [3] = 0.1 μg/ml + Radiation (3.5 kGy)
molecule,measurement,setting,value
B1,% Decrease in Apoptotic cells (with respect to radiation control),[1]; [2],−4.8%
same,% Apoptotic cells,[1]; [2],14.3%
same,% Decrease in Apoptotic cells (with respect to radiation control),[1]; [3],−7.3%
same,% Apoptotic cells,[1]; [3],14.7%
same,% Decrease in Apoptotic cells (with respect to radiation control),[1]; 1 μg/ml + Radiation (3.5 kGy),56%
same,% Apoptotic cells,[1]; 1 μg/ml + Radiation (3.5 kGy),6%
same,% Decrease in Apoptotic cells (with respect to radiation control),[1]; 10 μg/ml + Radiation (3.5 kGy),62.2%
same,% Apoptotic cells,[1]; 10 μg/ml + Radiation (3.5 kGy),5.1%
same,% Decrease in Apoptotic cells (with respect to radiation control),"[1]; 10 μg/ml + Radiation (3.5 kGy), listed as SEQ ID NO: 2",62.6%
same,Percentage Inhibition CCL-2,CCL-2; [2],0.1%
same,Percentage Inhibition CCL-2,CCL-2; [3],23.1%
same,Percentage Inhibition CCL-2,CCL-2; 1 μg/ml + Radiation (3.5 kGy),23.1%
same,Percentage Inhibition CCL-2,CCL-2; 10 μg/ml + Radiation (3.5 kGy),23.1%
same,Percentage Inhibition CCL-2,CCL-2; 25 μg/ml + Radiation (3.5 kGy),0%
same,CCL-2 against radiation induced levels,"CCL-2; radiation, in words",downregulation
same,Percentage Inhibition IL-1β,IL-1β; [2],−17.3%
same,Percentage Inhibition IL-1β,IL-1β; [3],−15.1%
same,Percentage Inhibition IL-1β,IL-1β; 1 μg/ml + Radiation (3.5 kGy),−11.5%
same,Percentage Inhibition IL-1β,IL-1β; 10 μg/ml + Radiation (3.5 kGy),−44.8%
same,Percentage Inhibition IL-1β,IL-1β; 25 μg/ml + Radiation (3.5 kGy),−97.1%
same,Percentage Inhibition IL-6,IL-6; [2],−0.2%
same,Percentage Inhibition IL-6,IL-6; [3],3.1%
same,Percentage Inhibition IL-6,IL-6; 1 μg/ml + Radiation (3.5 kGy),3.8%
same,Percentage Inhibition IL-6,IL-6; 10 μg/ml + Radiation (3.5 kGy),7.7%
same,Percentage Inhibition IL-6,IL-6; 25 μg/ml + Radiation (3.5 kGy),5.2%
same,Percentage Inhibition MMP-3,MMP-3; [2],42.8%
same,Percentage Inhibition MMP-3,MMP-3; [3],51.9%
same,Percentage Inhibition MMP-3,MMP-3; 1 μg/ml + Radiation (3.5 kGy),47.4%
same,Percentage Inhibition MMP-3,MMP-3; 10 μg/ml + Radiation (3.5 kGy),47.4%
same,Percentage Inhibition MMP-3,MMP-3; 25 μg/ml + Radiation (3.5 kGy),28.8%
same,MMP-3 against radiation induced levels,"MMP-3; radiation, in words",downregulation
same,Percentage Inhibition MMP-8,MMP-8; [2],1.8%
same,Percentage Inhibition MMP-8,MMP-8; [3],13.9%
same,Percentage Inhibition MMP-8,MMP-8; 1 μg/ml + Radiation (3.5 kGy),11%
same,Percentage Inhibition MMP-8,MMP-8; 10 μg/ml + Radiation (3.5 kGy),8.5%
same,Percentage Inhibition MMP-8,MMP-8; 25 μg/ml + Radiation (3.5 kGy),7.6%
same,MMP-8 against radiation induced levels,"MMP-8; radiation, in words",downregulation
same,Percentage Inhibition RAGE,RAGE; [2],38.8%
same,Percentage Inhibition RAGE,RAGE; [3],42.6%
same,Percentage Inhibition RAGE,RAGE; 1 μg/ml + Radiation (3.5 kGy),47.6%
same,Percentage Inhibition RAGE,RAGE; 10 μg/ml + Radiation (3.5 kGy),53.5%
same,Percentage Inhibition RAGE,RAGE; 25 μg/ml + Radiation (3.5 kGy),39.1%
same,RAGE against radiation induced levels,"RAGE; radiation, in words",downregulation
same,Percentage Inhibition TNF-α,TNF-α; [2],43.2%
same,Percentage Inhibition TNF-α,TNF-α; [3],45.2%
same,Percentage Inhibition TNF-α,TNF-α; 1 μg/ml + Radiation (3.5 kGy),39.6%
same,Percentage Inhibition TNF-α,TNF-α; 10 μg/ml + Radiation (3.5 kGy),47.1%
same,Percentage Inhibition TNF-α,TNF-α; 25 μg/ml + Radiation (3.5 kGy),41%
same,TNF-α against radiation induced levels,"TNF-α; radiation, in words",downregulation
same,Percentage Inhibition VGEF,VEGF; [2],0.9%
same,Percentage Inhibition VGEF,VEGF; [3],−8.1%
same,Percentage Inhibition VGEF,VEGF; 1 μg/ml + Radiation (3.5 kGy),8.4%
same,Percentage Inhibition VGEF,VEGF; 10 μg/ml + Radiation (3.5 kGy),23.3%
same,Percentage Inhibition VGEF,VEGF; 25 μg/ml + Radiation (3.5 kGy),29.7%
same,VEGF against radiation induced levels,"VEGF; radiation, in words",downregulation
same,"IL-1β levels, Mean","Interleukin-1β; G4, 0.25 mg/Animal",79.10
same,"IL-1β levels, % Decrease vs G2","Interleukin-1β; G4, 0.25 mg/Animal",54.45%
same,"IL-1β levels, Mean","Interleukin-1β; G5, 0.5 mg/Animal",105.66
same,"IL-1β levels, % Decrease vs G2","Interleukin-1β; G5, 0.5 mg/Animal",39.16%
same,"IL-1β levels, Mean","Interleukin-1β; G6, 1 mg/Animal",101.96
same,"IL-1β levels, % Decrease vs G2","Interleukin-1β; G6, 1 mg/Animal",41.29%
same,levels of IL-1β as compared to the untreated subjects,"Interleukin-1β; hamsters suffering from OM, in words",reduction
